assay: soluble fraction after stress (log2 fold change); higher = more stays soluble; pooled small domains, quantitative proteomics; details: stress: pH 4
Procedure, shortened: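 Aggregation propensity is estimated from the fold change in each domain's soluble amount after acid stress. Pooled small-domain libraries were stressed at pH 4, and higher log2 values mean more stayed soluble.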

Sequence | soluble fraction (log2)
HMVLGSSVAMGQKIGDSDLTWVEVPLSSAFDRFLSEPEWRGSSDLVAARLLEAGVFLTEDDVVE | 0.136
HMVLLGAAIRELRIQKGITIEELAEMSGLSTGLISKIERDLGNPSISSLRKISRALGVPTAFFFA | -0.744
HMVLSKGAKELLDFIMREGEVTTSKVVQKFGGSAQNASAKLKKLYATGLILGSKAVAESGGLEFVYKA | 0.1
HMVLSVRERMGIVLEKVNTETFTDFKELFTVEEGRAGAIVSLLAILQLMKDSLIQLVQNEPNGPIYVKAA | 0.22
HMVLTSFHDNFPKTGTTYTVRSGDTISGIATKFGSTRDWIQNANEISHPKYLQVGRTLFIPH | 0.22
HMVMATPHNTAKAGDIAKTVIMPGDPLRAKYIADNYLDNAVQFNVVRNIYGYTGVYRGTDISVMASGM | 0.0409
HMVMETLAERINTALQTKGLSVNALARRVGVSYPAMRKITKGETLNPKFLFEIAEALGVSVEWLKTGEGSP | 0.0978
HMVMNKQEFLKILRDTLQSQLSSRETENHVEYYRTYIEEQMREGKTEIEILDVLGDPRLIARTILET | -0.253
HMVMSTDAELILEYLAKHQGEMEITDKSSPELIMDTFNMSKGAFKRALGSLYKSKTVVIESTKVLLNT | -0.0971
HMVNDQSIYASEGYVHIRSGKPVSLRIYTILGALYRHEERLVGDHVIALPRGLYIVVLNHTAKKIMV | 0.021
HMVNEALDEFFVGLKNLYESATGKPAIAGAHFDGEPKTDFEKLMYLGYQIIRPAQAYPSALKAYERAIARS | -1.15
HMVNHEERKRLIAEATWRTISHVGIEQASVRTIAKEAGLSLGALRYYFTTQEELLRFSMQLVQERV | 0.0598
HMVNIEAEVGRRLRQLRARRGLSLRALADLSGLNVNTLSLIENSKTSPSVSTLQQLARSLQVPITTFFESD | 0.142
HMVNKQERTYTILRDRIHSGSFAPLERLNIDALARELGVSPIPVREALRRLEAEGWVRFTPNVGAVVSP | 0.308
HMVNLLVTPLEELEINFRTLRALRKYNIYQLEDLLRFIKYNGFDALRIVPGMGIKSTEQLYEKLKDKNI | -1.06
HMVNTVEVQGNTIYSAEEIRSASGIQKGDNLFTLNKEAAAGSIKASLPYVETVSIIRFLPDKIVIEVKE | -0.977
HMVNVLKNSTVIDLVKNNLSDALIISLIRRAKVDFSLMTDDVIELSGKGVSPAVIMEMRQAMIRQASEIQN | -0.183
HMVNVTEAIDLENGTGKLSGTFNHEPKSAEEIIFLLKIDTNKWKLSQYWNKQMGDHWRVSALISQI | -1.54
HMVPAMEVALEDARRAIEQVVSGERTSVQLSSQEAMIRKLQHQMAKDANLFSRSSGVEPQRRVTIYTN | -0.478
HMVPHQPRVWTNTAGKTITAAFVRFNAAGRKVSLKLEKGRQVELPLASLSGNDVDWIKEHVPEAMSNQE | -0.00313
HMVPISGADFEKLSDYILQKAGAGSIQVKELLAGLKGMHEKNLWKAIDYLLAEEKIRIDKGGNISVK | -0.249
HMVPQAVQDIKAYLASGALPYIGPATAKKIVAMFGSDALDVIAEHPEQLTAIRGLNEEKANAIHQEFRRQF | 0.0364
HMVPSSHNIAQKVKQIKINDLWLDVRERYIYLKNLYLSHPLEKDHPSFIVYVEAVNQIYNQYF | 0.0743

Sequence | soluble fraction (log2)
HMVQDDLRELEGISTELLAKLADAGITNRDDLADLAIDELVAITGQSEDDAKALIMKAREHWFAGDA | -1.09
HMVQIIQLQGTDKRLYELVAPLVMNPEILKQNYNYPFRTSEDFVWFVAVDKKKVIGFIPVEEKKKEYVI | -0.275
HMVRKGEINFDQLSVRARNALRNMNILFEKEILKLTEYDLKSIPNLGVKTTNELLSYIKRLQTNQKEE | -0.653
HMVRRSERLHALTESLRRSGNRGRTAEQLATEFEVSVRTIKRDLVALEASGLPLWSRPGPGGGYGLLS | -0.0236
HMVRTIKILGIKHNINLYYKNVKVPTMNVKNQTLEIILPNKYKKFQEEQILKVLTQKLYDKIAETEIEKIK | ≥ 0.43
HMVSAEQNTLEFIKENVKEDVIEDDIEFYKSLLEDWSVEVDNSSKLLDPGNNNSLLAVIAYSIENEL | -0.414
HMVSDAWITGKVKSQLLADDVTPGMKIDVDTEDRIVSLKGTVPSLTARNEAIRIASHTKGVRTVDADELIV | -0.0247
HMVSFAEQASDWLAHFDRLGDVGPDTTLTDLTARDAEFSAWVNEGIHHRVAFLETLAAWHRTER | -0.0379
HMVSGLEILKIQVQDHPSDWRWALLLARTHYENGNREAAVRTLRPLQRLHPDRLEVMTLWALLA | -0.222
HMVSGSPTVDILMQRGLEYQQQENLEAARDAFDRAINLKPDYAEAWNRRAVLFFNEGKYDEAIADLETAIT | -0.0941
HMVSKEELANSIYENKTADELGNIVLRKGKYSGEMLRTIYVKDIGYLEWHSKQSYEYSNAVKWYLKKLE | -0.846
HMVSLEEIINDLTSRIQTAVKMRFSDFVQNRKERVGVIVSFLGMLELVKQGIIDIKQEGHFADIEMETA | -0.58
HMVSLSENQKIVLESLNTAMSARELMEILNLSDISHFRRNILNPLLLEGLIVRTKPDKPKSSKQKYIKANF | -0.354
HMVSPEVEMLRAAVETMSERQKQVYELHYLRGFNVKETAAILGMSSPTVTAHKKRIMEIIKKFFE | -0.88
HMVSPFQQQIADKVHNEIIAAKFNYDNATNENERLLAQLQAKKARELANQYGLDMSSYGADTTAERS | 0.00762
HMVSSAEQQARDKESGMILVQEAGGPDKARALVEKMRQDIRNPALDGTRRQMLRGHVARIELALAELETG | -0.0115
HMVSVGDIFAGRIISNENGHLLLQLLDGSKISAQTVTDLKYNIGDVLNLEIIEEKQGLIFVRQT | -0.471
HMVSVLGRRIKELRLQNSMTQMQLAKKLGYKGNSLVAGWELGKNYPSVSSIKRLSEIFDTDLMKYVG | 0.22
HMVTDTGAIEKVIDEVIAANPKQVQEIADQRAAGHEKPKTLGWLVGQIMKASGGKVNPAAVNEILLKKLG | 0.00199
HMVTFDEISQSLVRDVAARRSLSVQTLHAMVDRYNAGSSINAVANQYGIDRLKLREILIELGVHVAT | -0.44
HMVTLQEVKQYLRIDFEEEDPLLLSLLATAKQQVMNVGRMDEAQLSEHEDTARTAILYAVSYLYENRN | -1.63
HMVTPAQQARDTLLGALVGLARATTSEPKTDDTDVVLNAGLRLAAQPDAPEERLQRMLAIVQTEKHRV | 0.215
HMVTVNAFGKSGPEPAAMTKEALAKGADEVRVIVDSPTAAASVRDFLIGAGLRVQLQDDEGQLIVVGEKK | 0.344

Sequence | soluble fraction (log2)
HMVVDEQRIQTLVSAAEQNSSDPVPRVTLGNLYFDAEQFEEAVKWYEQALALDPRNVNVSTDLGVGYYY | -0.451
HMVVKLTQEQDRFIKTFNDKSLAFYYISSWGWGSFLRNGIGGVYEGDKTPFTLDEKEKMLNAIINGYEVI | -1.36
HMVVKSPLEMAFDKFREMRKKIRKPMTERAEELIWKELSKLAGEDSDLKIEILEQSIRNGWQDVYAVK | -0.064
HMVVLPGEVVALKIIQTGSSKDQGVGYLEDGTMVVVDGAKNSIGKTIEIQISRSHQTVAGRMLFGIAMS | -0.0841
HMVVQTELVRISITSLSGEDIRRLVQIKVVGATIEPFEGGGFLITGTAEQIAKAKDFLNSMSTEF | -1.29
HMVVRKHDRYYTPEHRKLLMDTYERTNKYPTKQDMSELAKIIGVLPIKILWWYTHRRRQDRRKGEESSSP | -2.23
HMVVTMEKIVVNDGGIRIDTYLADKLNISRSKVAKMLENNILVNNVKVKPSYKVTNNDIIEVEEYV | 0.402
HMVVVLPGETIKIDLIREGKDKQALGYLEDGTMIVVDNAKHLIGKNVEIEIDNVLPKEAGRVIFASLHGA | -0.942
HMVVVMNADAEADEIKRVKWNLEQMLFRTQVIYGVKRIVIGAIGDQREVDLSEIEQMPKVDKIVRISK | -1.39
HMVVVPDVKGLKIEEAAEFFKNNNLHYNVIDSVFSKDVEPGAIVELSPLAGSKVKEGRIVFITVNALTS | -0.681
HMVVVVELTENEKAVQDVLTKNEGSLEISDLKTKLELSGKQWDKALKGLAKHGITQVAKVDGVVTVSL | -1.4
HMVWMIEKDQSVILVNKLERIQVEALGKALENGNFGDRIRVINNKSGQKLLGIVESEKKIQIISKI | -0.077
HMVYLPGEEIPLKIIQEGKESGQGVGYLEDGTMVVVENGRRYLNQEVLVQVTKILQTNAGRLIFAVP | 0.11
HMVYLPSSIKNIPTKYGEMMVANFKMDELQANSKNGWVSMVISERREPSEKGATHYAYVNTY | 0.106
HMVYNQYILTQSVRLREEPGISGRVIRLLETGTTVELVDTVVVNKDDYDWVWVKLSDGAVGWIIKSAIDI | -1.03
HMWDEMKDQKLVEALLLLREDERKLIYQHVFEERTFDDISRINGLPPYKVKGIYYYAIRKIRKWMG | -0.425
HMWGQDVLFTIDKKEFKGKLLEQSDKHTTFLPDGQKTPQKIPNRLIKEIHLGSNKIIDFGNDFLI | 0.0314
HMWPDDAIALPTRDGQDVGGAQERTMLAFASGAAGIRTVEEINPDGSITRLRTRYGWPTFETEGARTAAAE | -0.221
HMWTIDPLDWKTENADQIVEKVMSEAKENAIILLHDRYEASVEAALRIVDLLKEQGYTFVTADKLV | -0.421
HMWTKKELWNAIAKLPKKQRTVVMMRIAQNLPYKDISEITGMSIGSAKVNYHHAVNSLKQWLS | 0.22
HMWTPLVVAVLIGGTHRFGELRAAVGGITPKVLTETLRSMERDGLVVREQTPGVPPRVDYALTPLGA | -0.191
HMYAGTWISESGQWKYRNDDGSFAKGWFQDLDSRWYYFDANGHMLSDTLTPDGYRLGEDGAWVND | -1.42
